To fix the notation:
T1: human beta-Klotho (human, UniProt Q86Z14 1-1044)
T1 sequence (looked up): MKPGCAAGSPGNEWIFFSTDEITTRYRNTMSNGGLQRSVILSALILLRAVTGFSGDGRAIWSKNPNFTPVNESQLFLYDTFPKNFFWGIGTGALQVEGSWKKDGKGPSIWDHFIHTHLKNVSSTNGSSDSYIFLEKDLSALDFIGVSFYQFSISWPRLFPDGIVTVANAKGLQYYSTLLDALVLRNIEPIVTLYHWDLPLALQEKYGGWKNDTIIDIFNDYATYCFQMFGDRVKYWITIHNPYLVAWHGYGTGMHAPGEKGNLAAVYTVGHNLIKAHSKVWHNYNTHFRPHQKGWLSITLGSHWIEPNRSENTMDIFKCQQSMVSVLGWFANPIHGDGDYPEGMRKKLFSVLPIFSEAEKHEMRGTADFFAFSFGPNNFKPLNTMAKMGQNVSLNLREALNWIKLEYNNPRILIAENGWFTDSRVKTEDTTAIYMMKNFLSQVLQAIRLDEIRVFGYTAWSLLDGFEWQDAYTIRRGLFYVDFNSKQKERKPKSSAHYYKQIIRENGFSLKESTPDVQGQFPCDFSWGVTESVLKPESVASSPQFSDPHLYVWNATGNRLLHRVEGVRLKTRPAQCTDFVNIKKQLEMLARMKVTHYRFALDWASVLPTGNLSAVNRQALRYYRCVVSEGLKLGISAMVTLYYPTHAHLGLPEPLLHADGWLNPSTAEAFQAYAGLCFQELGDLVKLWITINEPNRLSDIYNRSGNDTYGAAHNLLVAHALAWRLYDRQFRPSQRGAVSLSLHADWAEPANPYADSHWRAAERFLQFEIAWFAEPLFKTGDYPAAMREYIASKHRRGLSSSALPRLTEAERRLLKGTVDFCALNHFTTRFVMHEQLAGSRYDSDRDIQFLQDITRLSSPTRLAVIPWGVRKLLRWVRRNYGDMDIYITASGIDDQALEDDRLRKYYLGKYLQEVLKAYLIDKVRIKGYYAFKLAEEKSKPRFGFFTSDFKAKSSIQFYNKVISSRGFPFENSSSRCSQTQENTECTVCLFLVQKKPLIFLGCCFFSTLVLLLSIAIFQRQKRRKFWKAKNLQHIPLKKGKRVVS

B1: [S71C, N121Q, L166F, S167G, M168L, 173aA, G174V, Y179F, A180E, des181]Ala-FGF21 (ligand)
chain: AHPIPDSSPLLQFGGQVRQRYLYTDDAQQTEAHLEIREDGTVGGAADQSPESLLQLKALKPGVIQILGVKTCRFLCQRPDGALYGSLHFDPEACSFRELLLEDGYNVYQSEAHGLPLHLPGQKSPHRDPAPRGPARFLPLPGLPPALPEPPGILAPQPPDVGSSDPFGLVGPSQAVRSPSFE
B2: Met-FGF21 (Compound A) (ligand)
chain: MHPIPDSSPLLQFGGQVRQRYLYTDDAQQTEAHLEIREDGTVGGAADQSPESLLQLKALKPGVIQILGVKTSRFLCQRPDGALYGSLHFDPEACSFRELLLEDGYNVYQSEAHGLPLHLPGNKSPHRDPAPRGPARFLPLPGLPPALPEPPGILAPQPPDVGSSDPLSMVGPSQGRSPSYAS
B3: N-alpha-bis-(4-{[2-(2-{2-[2-(2-{2-[(S)-4-carboxy-4-(17-carboxyheptadecanoylamino)butyrylamino]ethoxy}ethoxy)acetylamino]ethoxy}ethoxy)acetylamino]methyl}benzyl) … (ligand)
chain: B2 chain with M1G, K57R, K60R, K70R, K123R
modifications: alpha amino group of the N-terminal Gly carries two 4-{[2-(2-{2-[2-(2-{2-[(S)-4-carboxy-4-(17-carboxyheptadecanoylamino)butyrylamino]ethoxy}ethoxy)acetylamino]ethoxy}ethoxy)acetylamino]methyl}benzyl groups
B4: [K56R, K59R, K69R, K122R]Gly-FGF21 (ligand)
chain: B2 chain with M1G, K57R, K60R, K70R, K123R
B5: [N121Q] Ala-FGF21 (ligand)
chain: B2 chain with M1A, N122Q
B6: [N121Q]Met-FGF21 (ligand)
chain: B2 chain with N122Q
B7: [N121Q, L166F, S167G, M168L, P171L, S172E, Q173A, G174V, Y179F, A180E, des181]Ala-FGF21 (ligand)
chain: AHPIPDSSPLLQFGGQVRQRYLYTDDAQQTEAHLEIREDGTVGGAADQSPESLLQLKALKPGVIQILGVKTSRFLCQRPDGALYGSLHFDPEACSFRELLLEDGYNVYQSEAHGLPLHLPGQKSPHRDPAPRGPARFLPLPGLPPALPEPPGILAPQPPDVGSSDPFGLVGLEAVRSPSFE
B8: N-alpha(4-{[2-(2-{2-[2-(2-{2-[(S)-4-Carboxy-4-(17-carboxyheptadecanoylamino)butyrylamino]-ethoxy}ethoxy)acetylamino]ethoxy}ethoxy)acetylamino]methyl}benzyl) … (ligand)
chain: B7 chain with S72C
modifications: alpha amino group of the N-terminal Ala carries one 4-{[2-(2-{2-[2-(2-{2-[(S)-4-carboxy-4-(17-carboxyheptadecanoylamino)butyrylamino]ethoxy}ethoxy)acetylamino]ethoxy}ethoxy)acetylamino]methyl}benzyl group
B9: [S71C, N121Q, L166F, S167G, M168L, P171L, S172E, Q173A, G174V, Y179F, A180E, des181]Ala-FGF21 (ligand)
chain: B7 chain with S72C
B10: [S71C, N121Q, L166F, S167G, M168L, des170, 173aA, G174V, Y179F, A180E, des181]Ala-FGF21 (ligand)
chain: B7 chain with S72C, G171P, L172S, E173Q

Residue numbers refer to the chain shown, from its start. Names may count otherwise.

For this experiment, the target named is T1, human beta-Klotho. Briefly: cell-based or functional assay.
In the case of “N-alpha-(4-{[2-(2-{2-[2-(2-{2-[(S)-4-carboxy-4-(17-carboxyheptadecanoylamino)butyrylamino]ethoxy}ethoxy)acetylamino]ethoxy}ethoxy)acetylamino]methyl}benzyl) [K56R, K59R, K69R, D102T, D121Q, K122R, L166F, S167G, M168L, G170T] Ala-FGF21 (Compound III) (from UniProt Q9NSA1 28-209) (ligand)”, the pERK-HEK293-Beta-klotho without HSA [EC50 (nM)] Mean Value turned out to be 1 nM.
Turning to “[Q28R, K56R, K59R, K69R, D102T, D121Q, K122R, L166F, S167G, M168L, G170T] Ala-FGF21 (from UniProt Q9NSA1 28-209) (ligand)”, the pERK-HEK293-Beta-klotho without HSA [EC50 (nM)] Mean Value was found to be 0.8 nM.
B1: the “pERK-HEK293-Beta-klotho without HSA [EC50 (nM)] Mean Value” (from here on “pERK-HEK293-Beta-klotho without HSA”) came out at 0.4 nM.
As for B2, the “pERK-HEK293-Beta-klotho without HSA” value worked out at 1.6 nM.
As for B3, the “pERK-HEK293-Beta-klotho without HSA” value was determined as 4.6 nM.
As to B4, the “pERK-HEK293-Beta-klotho without HSA” value worked out at 8.3 nM.
For B5, the “pERK-HEK293-Beta-klotho without HSA” value stood at 2.3 nM.
In the case of B6, the “pERK-HEK293-Beta-klotho without HSA” value stood at 1 nM.
As for B7, the figure is 0.7 nM; as for B8, 0.4 nM.
Turning to B9, the “pERK-HEK293-Beta-klotho without HSA” value was 0.6 nM.
As for B10, the figure is 1.8 nM.

The values above are taken from patent US20130190232A1 (Novo Nordisk, published 2013).
